In patent US20250382352A1 (SCG CELL THERAPY PTE, published 2025):
Numbering of substitutions follows the chain as printed. Like-named read-outs stand apart in the source and are kept apart here.

B1: BsAb2-6 (C8 scFv fused to the C-terminus of the heavy chain of the murine anti-CD3 Ab via a linker) (bispecific antibody)
chain 1: not shown
chain 2: QAVVTQESALTTSPGETVTLTCRSSTGAVTTSNYANWVQEKPDHLFTGLIGGTNKRAPGVPARFSGSLIGDKAALTITGAQTEDEAIYFCALWYSNLWVFGGGTKLTVLRTVAAPSVFIFPPSDEQLKSGTASVVCLLNNFYPREAKVQWKVDNALQSGNSQESVTEQDSKDSTYSLSSTLTLSKADYEKHKVYACEVTHQGLSSPVTKSFNRGEC
B2: BsAb2-5 (C8 scFv fused to the N-terminal of the heavy chain of the murine anti-CD3 mAb) (bispecific antibody)
chain 1: not shown
chain 2: B1 chain 2
B3: BsAb2-6-001 (bispecific antibody)
heavy: not shown
light: QTVVTQEPSLTVSPGGTVTLTCRSSTGAVTTSNYANWVQQKPGQAPRALIGGTNKRAPWTPARFSGSLLGDKAALTLSGVQPEDEAEYYCALWYSNLWVFGGGTKLTVLRTVAAPSVFIFPPSDEQLKSGTASVVCLLNNFYPREAKVQWKVDNALQSGNSQESVTEQDSKDSTYSLSSTLTLSKADYEKHKVYACEVTHQGLSSPVTKSFNRGEC
notes: also called VH1VL1; SCG2-6-001
B4: BsAb2-6-011 (bispecific antibody)
heavy: not shown
light: B3 light
notes: also called VH3VL1; SCG2-6-011
B5: BsAb2-6-016 (bispecific antibody)
heavy: not shown
light: B3 light
notes: also called VH4VL1; SCG2-6-016
B6: BsAb2-5-013 (bispecific antibody)
heavy: not shown
light: B3 light with T2A, A48G, W59G, Y89F
notes: also called VH3VL3
B7: BsAb2-5-011 (bispecific antibody)
heavy: not shown
light: B3 light
notes: also called VH3VL1; SCG2-5-011
B8: BsAb2-6-017 (bispecific antibody)
heavy: not shown
light: B3 light with A48G, W59G
notes: also called VH4VL2; SCG2-6-017
B9: BsAb2-5-012 (bispecific antibody)
heavy: not shown
light: B3 light with A48G, W59G
notes: also called VH3VL2
B10: BsAb2-6-026 (bispecific antibody)
heavy: not shown
light: B3 light
notes: also called VH6VL1; SCG2-6-026
B11: BsAb2-6-006 (bispecific antibody)
heavy: not shown
light: B3 light
notes: also called VH2VL1; SCG2-6-006
B12: BsAb2-6-018 (bispecific antibody)
heavy: not shown
light: B3 light with T2A, A48G, W59G, Y89F
notes: also called VH4VL3
B13: BsAb2-5-018 (bispecific antibody)
heavy: not shown
light: B3 light with T2A, A48G, W59G, Y89F
notes: also called VH4VL3
B14: BsAb2-6-021 (bispecific antibody)
heavy: not shown
light: B3 light
notes: also called VH5VL1; SCG2-6-021
B15: BsAb2-6-015 (bispecific antibody)
heavy: not shown
light: QTVVTQEPSFSVSPGGTVTLTCRSSTGAVTTSNYANWVQQTPGQAPRGLIGGTNKRAPGVPDRFSGSILGDKAALTITGAQADDESDYYCALWYSNLWVFGGGTKLTVLRTVAAPSVFIFPPSDEQLKSGTASVVCLLNNFYPREAKVQWKVDNALQSGNSQESVTEQDSKDSTYSLSSTLTLSKADYEKHKVYACEVTHQGLSSPVTKSFNRGEC
notes: also called VH3VL5
B16: BsAb2-6-020 (bispecific antibody)
heavy: not shown
light: B15 light
notes: also called VH4VL5

Columns and labels:
[1] = biological target: T1, rhesus CD3ε recombinant protein (rhesus); assay: ELISA, recombinant rhesus CD3ε
T1 construct: also called rhesus CD38 [sic]

[2] = biological target: T1, rhesus CD3ε recombinant protein; assay: ELISA, recombinant rhesus CD3ε; remark: listed apart in the source
[3] = biological target: T2, HBsAg recombinant protein (hepatitis B virus); assay: ELISA, recombinant HBsAg
T2 chain: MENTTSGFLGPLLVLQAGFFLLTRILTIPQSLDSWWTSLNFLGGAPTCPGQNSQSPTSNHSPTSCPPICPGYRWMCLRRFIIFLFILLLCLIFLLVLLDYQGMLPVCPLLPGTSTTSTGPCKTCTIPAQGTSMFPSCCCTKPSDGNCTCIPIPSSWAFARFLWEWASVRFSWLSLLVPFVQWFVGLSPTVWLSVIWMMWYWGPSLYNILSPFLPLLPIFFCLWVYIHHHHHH

[4] = biological target: T2, HBsAg recombinant protein; assay: ELISA, recombinant HBsAg
[5] = biological target: T3, human CD3ε recombinant protein (human, UniProt P07766 23-126); assay: ELISA, recombinant human CD3ε
T3 construct: also called human CD3E; huCD3ε
T3 sequence (P07766 23-126 limits assumed): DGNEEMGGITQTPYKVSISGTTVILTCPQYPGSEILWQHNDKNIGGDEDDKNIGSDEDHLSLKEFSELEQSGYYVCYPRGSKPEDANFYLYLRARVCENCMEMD

[6] = biological target: T3, human CD3ε recombinant protein; assay: ELISA, recombinant human CD3ε; remark: listed apart in the source
[7] = biological target: T4, CD3ε expressed on the surface of Jurkat cells (human, UniProt P07766 23-207); assay: flow cytometry on Jurkat cells (panel title: Binding with CD3+ T cell), MFI
T4 construct: whole, on cells; also called CD3 expressed on human leukemic T cell line Jurkat; hCD3ε
T4 sequence (P07766 23-207): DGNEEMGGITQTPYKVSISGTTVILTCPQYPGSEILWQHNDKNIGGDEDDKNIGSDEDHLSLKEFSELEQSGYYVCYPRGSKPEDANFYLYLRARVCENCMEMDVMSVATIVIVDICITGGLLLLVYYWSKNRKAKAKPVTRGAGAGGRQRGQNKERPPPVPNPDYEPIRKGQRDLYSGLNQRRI

[8] = biological target: T2, HBsAg recombinant protein; assay: SPR (Biacore), bsAb on protein A chip, antigen in flow
Protocol: (§1) Binding affinity of anti-HBsAg/anti-CD3 constructs to HBsAg and human/cynomolgus CD3ε is characterized by SPR using Biacore […] (GE Healthcare). Specifically, the anti-HBsAg/anti-CD3 bispecific antibodies were immobilized on protein A chip at a flow rate of 10 μL/min, and gradient dilution of huCD3ε, cynoCD3ε, or HBsAg antigen was used as the mobile phase. The binding condition was 10 μL/min×180 s. The dissociation condition was 10 μL/min×400 s and the regeneration conditions were 30 μL/min×30 s at pH1.5 Gly. FIG. 10 and FIG. 11 show the kinetic curves of bsAb-2-5 and bsAb-2-6 constructs bind to human and cynomolgus CD3 recombinant proteins, respectively. FIG. 12 show the kinetic curves of bsAb2-5 and bsAb2-6 constructs bind to HBsAg.

[9] = biological target: T1, rhesus CD3ε recombinant protein; assay: ELISA, recombinant protein
Protocol: (§2) Anti-HBsAg/anti-CD3 bispecific antibodies generated in Example 1 are analyzed by standard ELISA techniques for their binding properties to HBsAg, human CD3E, and rhesus CD3ε recombinant protein, respectively.

[10] = biological target: T2, HBsAg recombinant protein; assay: ELISA, recombinant protein
Protocol: as §2

[11] = biological target: T3, human CD3ε recombinant protein; assay: SPR (Biacore), bsAb on protein A chip, antigen in flow
Protocol: as §1

[12] = biological target: T3, human CD3ε recombinant protein; assay: ELISA, recombinant protein
Protocol: as §2

[13] = biological target: T5, cynomolgus CD3ε recombinant protein (cynomolgus, UniProt Q95LI5 22-117); assay: SPR (Biacore), bsAb on protein A chip, antigen in flow
T5 construct: also called cynoCD3ε; cynomolgus CD38 [sic]
T5 sequence (looked up): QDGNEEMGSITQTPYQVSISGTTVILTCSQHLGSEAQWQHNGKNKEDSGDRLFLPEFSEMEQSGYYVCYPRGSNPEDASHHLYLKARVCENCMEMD
Protocol: as §1

Row | Binder | Kd [8] | EC50 [9] | EC50 [10] | EC50 [12] | Kd [13] | also measured
1 | B1 |  |  |  |  |  | EC50 (read off the curve) [1]: ~0.07 nM; EC50 (read off the curve) [2]: ~0.07 nM; EC50 (read off the curve) [3]: ~0.2 nM; EC50 (read off the curve) [4]: ~0.3 nM; EC50 (read off the curve) [5]: 0.1 to 0.2 nM; EC50 (read off the curve) [6]: ~0.3 nM
2 | B2 |  |  |  |  |  | EC50 (read off the curve) [7]: ~0.05 nM
3 | B3 | 0.0491 nM | 0.29 nM | 0.5 nM |  |  | 
4 | B4 | 0.375 nM | 0.34 nM | 0.44 nM | 0.66 nM |  | Kd [11]: 29.2 nM
5 | B5 | 0.054 nM | 0.36 nM | 0.71 nM | 0.8 nM | 36 nM | Kd [11]: 35.3 nM
6 | B6 |  | 0.26 nM | 0.17 nM | 0.33 nM |  | 
7 | B7 | 0.0932 nM | 1.99 nM | 0.2 nM | 1.85 nM |  | Kd [11]: 12.4 nM
8 | B8 | 0.0321 nM | 0.15 nM | 0.6 nM | 0.4 nM | 0.737 nM | Kd [11]: 0.851 nM
9 | B9 |  | 0.24 nM | 0.16 nM | 0.32 nM |  | 
10 | B10 | 0.623 nM | 0.63 nM | 0.69 nM |  | 97.4 nM | 
11 | B11 | 0.00116 nM | 0.76 nM | 0.31 nM |  | 9.23 nM | 
12 | B12 |  | 0.16 nM | 0.73 nM | 0.5 nM |  | 
13 | B13 |  | 0.24 nM | 0.12 nM | 0.33 nM |  | 
14 | B14 | 0.348 nM | 0.83 nM | 0.8 nM |  | 148 nM | 
15 | B15 |  | 0.18 nM | 0.33 nM | 0.19 nM |  | 
16 | B16 |  | 0.12 nM | 0.56 nM | 0.32 nM |  | 
